Measurements reported in publication PMC8769072, “Proteome‐scale mapping of binding sites in the unstructured regions of the human proteome” (Molecular Systems Biology, 2022).
pIC50, pKd, pKi: −log10 of the molar value. Each block holds one substance with its values, some of them ahead of it.

Columns and labels:
[1] = target: FITC-labelled phospho-RAF1 255-264 probe peptide (FITC-QRSTpSTPNVH) (human); assay: fluorescence polarisation; saturation: protein in serial dilution added to FITC-labelled probe peptide (master mix with 10 nM probe and 2 mM DTT), 50 mM KPO4 or NaPO4 pH 7.5; fitted to a quadratic equation
[2] = target: FITC-labelled Myc 320-328 probe peptide (FITC-…) (human); assay: as above
[3] = target: FITC-labelled NCOR2 1307-1322 probe peptide (FITC-…) (human); assay: as above
[4] = target: importin subunit alpha‐3 (KPNA4) ARM domain (UniProt O00629); assay: FP competition against FITC-NCOR2 1307-1322 probe; conditions: reference: unphosphorylated peptide
[5] = target: MDM2 SWIB, cleaved from the His‐GST tag, for affinity measurements (human); assay: fluorescence polarisation; competition: unlabelled peptide in serial dilution displaces a FITC-labelled probe peptide from the bait domain (master mix with protein at four times the KD of the probe, 10 nM probe, 2 mM DTT); 50 mM KPO4 or NaPO4 pH 7.5; triplicates; probe for KEAP1 Kelch: FITC-NFE2L1 228-243, other probes in Dataset EV6
[6] = target: KPNA4 ARM (importin subunit alpha-3, armadillo repeat domain) (human) (UniProt O00629); assay: fluorescence polarisation; competition: unlabelled peptide in serial dilution against KPNA4 ARM (master mix at four times the KD) with the probe FITC-Myc(320-328), probe of the major pocket; 50 mM KPO4 pH 7.5; Ki calculated from IC50
[7] = target: KPNA4 ARM (importin subunit alpha-3, armadillo repeat domain) (human) (UniProt O00629); assay: fluorescence polarisation; competition: unlabelled peptide in serial dilution against KPNA4 ARM (master mix at four times the KD) with the probe FITC-NCOR2(1307-1322), probe of the minor pocket; 50 mM KPO4 pH 7.5; Ki calculated from IC50

pKd [1]: 3.28
Substance: 14-3-3 protein sigma (SFN 14-3-3) (from UniProt P31947 1-248) (domain or fragment)

pKd [2]: 7.52
pKd [3]: 6.64
Substance: KPNA4 ARM domain, MBP-tagged (from UniProt O00629 1-521) (domain or fragment)

binding against the reference ([4]; sites S1242): same
Substance: NCOR1 class III NLS peptide (from UniProt O75376) pS1242 peptide

binding against the reference ([4]; sites S1246): weaker
Substance: NCOR1 class III NLS peptide (from UniProt O75376) pS1246 peptide

binding against the reference ([4]; sites Y1247): same
Substance: NCOR1 class III NLS peptide (from UniProt O75376) pY1247 peptide

pKi [5]: 5.48
Substance: NUMB_(615–630) peptide, synthetic (from UniProt P49757 615-630)

pIC50 [6]: 6.59
Substance: SPRTN 400-416 peptide

pIC50 [7]: 5.89
Substance: ZNF532 1139-1154 peptide
